Results: publication PMC3621618, “Comparative measurement of CNP and NT-proCNP in human blood samples: a methodological evaluation” (Journal of Negative Results in Biomedicine, 2013)

B1: ProCNP: pro-peptide of CNP, reported stable per the manufacturer's protocol (peptide, UniProt P23582 24-126, looked up)
pro-form: KPGAPPKVPRTPPAEELAEPQAAGGGQKKGDKAPGGGGANLKGDRSRLLRDLRVDTKSRAAWARLLQEHPNARKYKGANKKGLSKGCFGLKLDRIGSMSGLGC
modifications: pro-form

Experiments:
[1] = human serum and full blood (EDTA), room temperature, 30 min and 2 hours; CNP-22 EIA; n = 12
Protocol: We studied 12 male volunteers (mean age 29 ± 2 years, normal weight, no drug therapy, no history of cardiovascular or other diseases, 3 smokers). From all investigated subjects informed consent was obtained. Triplets of fasting blood samples were taken from all volunteers at 8 o’clock in the morning. Blood samples were collected using the 7.5 ml S-Monovette® collection system (Sarstedt, Nümbrecht, Germany) containing either clotting activator (Kaolin) for serum samples, sodium-citrate for plasma samples or Potassium–EDTA for full blood samples. All samples for baseline analyses were immediately centrifuged at 2,000 × g for 10 min at 4°C and supernatant was stored at −70°C until analysis. For mid-term analyses (30 minutes or 2 hours), plasma samples were centrifuged at 2,000 × g for 10 min at room temperature. Supernatant was removed and stored at room temperature for 30 min or 2 hours. Following blood clotting, serum samples were processed identically to plasma samples. Supernatant was saved and also stored at room temperature for 30 min or 2 hours. Full blood samples were stored at room temperature without centrifugation. […] The concentration of CNP was measured using the CNP-22 EIA Kit (#EK-012-03, Phoenix Pharmaceuticals, Karlsruhe, Germany) according to the manufacturer’s protocol. […] Data were analyzed using MedCalc® for Windows, Version 10.0.1.0 (MedCalc Software, Mariakerke, Belgium).

[2] = unknown storage conditions of blood samples; ref manufacturer's protocol; cited from earlier work
Protocol: Consequently, the stability of the CNP peptide is most likely not affected by any delay in sample processing for at least two hours. ProCNP has already been reported (manufacturer’s protocol, unknown storage conditions of blood samples) to be stable for at least 2.5 hours. Accordingly, our experiments confirmed the stability of NT-proCNP even at room temperature.

Molecule | stability of CNP in serum and full blood samples [1] | time for which ProCNP is stable [2]
C-type natriuretic peptide [CNP] | stable in serum and in full blood samples for at least two hours at room temperature | –
B1 | – | at least 2.5 hours
